Data on one molecule can be found in patent publication US20160031996A1 (CSL, published 2016).

Test [1] concerns the target T1, chimera of human IL-3Rα residues 101-377 with GM-CSFRα domains (human, UniProt P15509 23-114).
T1 construct: on 293F cells
T1 sequence: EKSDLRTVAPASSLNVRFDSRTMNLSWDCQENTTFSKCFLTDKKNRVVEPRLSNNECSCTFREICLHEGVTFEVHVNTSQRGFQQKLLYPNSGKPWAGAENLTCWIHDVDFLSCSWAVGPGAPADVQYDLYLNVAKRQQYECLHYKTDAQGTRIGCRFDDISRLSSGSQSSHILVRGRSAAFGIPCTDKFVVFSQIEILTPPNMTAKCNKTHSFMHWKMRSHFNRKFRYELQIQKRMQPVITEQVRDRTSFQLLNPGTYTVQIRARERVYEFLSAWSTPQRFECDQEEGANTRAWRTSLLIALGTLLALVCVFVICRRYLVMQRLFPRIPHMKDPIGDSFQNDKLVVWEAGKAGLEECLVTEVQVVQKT
Briefly: flow cytometry, transfected 293F cells. An excerpt: Expression constructs were generated of frill length human IL-3Rα or of proteins comprising hIL-3Rα domains with various GM-CSFRα domains as depicted in FIG. 1A. […] Results are tabulated in Table 1 with positive staining (+) and negative staining (−) indicated.

The target in a further test is T2, wild-type human GM-CSFRα (human, UniProt P15509 23-400).
T2 construct: whole, on cells; negative control, on 293F cells; also called GM-CSFRa
T2 sequence (looked up): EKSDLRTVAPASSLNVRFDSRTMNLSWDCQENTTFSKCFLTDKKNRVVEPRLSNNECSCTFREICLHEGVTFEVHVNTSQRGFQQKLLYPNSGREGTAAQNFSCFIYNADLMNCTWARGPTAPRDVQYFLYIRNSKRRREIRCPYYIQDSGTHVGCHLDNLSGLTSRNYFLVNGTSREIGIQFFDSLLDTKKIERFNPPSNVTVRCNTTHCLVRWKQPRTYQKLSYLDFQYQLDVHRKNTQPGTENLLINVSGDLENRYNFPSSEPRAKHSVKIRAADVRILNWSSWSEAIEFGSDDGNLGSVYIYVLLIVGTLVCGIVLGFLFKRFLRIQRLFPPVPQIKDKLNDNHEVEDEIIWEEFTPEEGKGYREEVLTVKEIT
Briefly: Western blot, whole cell extracts. For orientation: Immunoblotting shows a protein as a band on a membrane.

For test [2], the target named is T3, human IL-3Rα E51Q/P88T double mutant, full length (human, UniProt P26951 19-378).
T3 chain: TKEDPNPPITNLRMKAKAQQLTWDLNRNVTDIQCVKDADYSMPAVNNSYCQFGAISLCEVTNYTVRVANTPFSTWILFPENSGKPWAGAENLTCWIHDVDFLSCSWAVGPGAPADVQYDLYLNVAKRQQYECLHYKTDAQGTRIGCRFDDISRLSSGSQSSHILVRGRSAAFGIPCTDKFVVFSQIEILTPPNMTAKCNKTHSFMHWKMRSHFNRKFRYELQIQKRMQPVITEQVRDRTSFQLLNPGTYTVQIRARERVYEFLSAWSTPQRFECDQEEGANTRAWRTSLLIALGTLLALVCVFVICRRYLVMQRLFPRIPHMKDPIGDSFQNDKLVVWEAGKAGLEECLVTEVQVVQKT
Briefly: Western blot after SDS-PAGE of whole cell extracts.

Test [3] addresses T4, human IL-3Rα S59A/P88T double mutant, full length (human, UniProt P26951 19-378).
T4 chain: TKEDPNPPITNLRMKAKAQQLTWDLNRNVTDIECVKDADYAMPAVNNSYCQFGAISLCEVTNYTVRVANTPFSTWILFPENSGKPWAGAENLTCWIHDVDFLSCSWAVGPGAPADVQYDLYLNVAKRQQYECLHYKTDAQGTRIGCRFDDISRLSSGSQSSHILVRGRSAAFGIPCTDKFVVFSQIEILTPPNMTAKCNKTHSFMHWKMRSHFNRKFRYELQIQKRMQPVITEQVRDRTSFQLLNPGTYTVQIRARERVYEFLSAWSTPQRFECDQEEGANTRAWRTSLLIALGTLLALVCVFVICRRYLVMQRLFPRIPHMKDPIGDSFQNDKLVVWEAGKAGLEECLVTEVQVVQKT
Briefly: Western blot after SDS-PAGE of whole cell extracts.

Test [4] concerns the target T5, human IL-3Rα E51Q/S59A/P88T triple mutant, full length (human, UniProt P26951 19-378).
T5 chain: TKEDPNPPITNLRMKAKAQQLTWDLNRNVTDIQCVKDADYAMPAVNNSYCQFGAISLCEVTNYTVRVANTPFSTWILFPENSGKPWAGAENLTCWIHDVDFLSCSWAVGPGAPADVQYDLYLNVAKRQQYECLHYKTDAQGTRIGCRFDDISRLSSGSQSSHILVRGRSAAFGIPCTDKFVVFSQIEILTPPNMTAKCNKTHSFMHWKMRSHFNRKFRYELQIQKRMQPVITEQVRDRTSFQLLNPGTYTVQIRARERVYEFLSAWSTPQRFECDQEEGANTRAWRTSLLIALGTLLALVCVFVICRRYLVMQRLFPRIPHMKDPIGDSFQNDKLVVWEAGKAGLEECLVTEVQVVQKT
Briefly: Western blot after SDS-PAGE of whole cell extracts.

Test [5] concerns the target T6, full length human IL-3Rα, wild type (human, UniProt P26951 19-378).
T6 construct: expressed in 293F cells; also called WT
T6 sequence: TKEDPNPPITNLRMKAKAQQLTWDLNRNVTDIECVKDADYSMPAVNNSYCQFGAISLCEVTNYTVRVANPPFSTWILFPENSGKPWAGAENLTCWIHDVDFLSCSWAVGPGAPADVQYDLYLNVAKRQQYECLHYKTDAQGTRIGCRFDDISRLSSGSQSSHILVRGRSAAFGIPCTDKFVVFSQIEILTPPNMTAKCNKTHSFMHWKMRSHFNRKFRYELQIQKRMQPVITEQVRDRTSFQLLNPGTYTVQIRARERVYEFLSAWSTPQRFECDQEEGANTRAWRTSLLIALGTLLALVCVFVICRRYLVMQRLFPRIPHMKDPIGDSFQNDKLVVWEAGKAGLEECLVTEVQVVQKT
Briefly: flow cytometry, MFI normalised to WT (reference, set as 100%). Here is the method: Median fluorescence intensity (MFI) of each antibody was determined for WT IL-3Rα and for each IL-3Rα mutant. The MFI of WT IL-3Rα staining for each antibody was set as 100% then the MFI of each mutant was normalized to a percent of WT staining.
(In general: Flow cytometry measures light scatter and fluorescence of single cells or particles in a stream.)

B1: monoclonal antibody 7G3 (antibody, V domains shown)
VH: EVQLQQSGPELVKPGASVKMSCKASGYTFTDYYMKWVKQSHGKSLEWIGDIIPSNGATFYNQKFKGKATLTVDRSSSTAYMHLNSLTSEDSAVYYCTRSHLLRASWFAYWGQGTLVTVSA
VL: DFVMTQSPSSLTVTAGEKVTMSCKSSQSLLNSGNQKNYLTWYLQKPGQPPKLLIYWASTRESGVPDRFTGSGSGTDFTLTISSVQAEDLAVYYCQNDYSYPYTFGGGTKLEIKR
notes: mouse monoclonal antibody (hybridoma ATCC HB-12009)
In the case of B1, the binding result (in test [1]; with wild-type human GM-CSFRα; in test [2]; in test [3]; in test [4]) was “no binding” each time. Besides, in test [5], the “MFI as percent of WT staining” value was 100 % of WT MFI.
